Experiment: yeast display, Sf9 membrane polyspecificity reagent, FACS + sequencing; frameworks hold sequencing errors
Summary of the method: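 Polyreactivity labels are assigned by the sorting gate from which each nanobody was recovered. The gates were low and high (top ~1%), set on anti-HA fluorescence for expression and streptavidin fluorescence for reagent binding. Before sorting, galactose-induced (36–48 hours) yeast display cells were stained for 1 hour at 4 °C with 10% biotinylated, detergent-solubilized Sf9 membrane reagent.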

Sequence	polyreactivity (PSR sort gate)
QVQLVESGGGLVQAGGSLRLSCAASGSTIYTYALGWYRQAPGKERELVAAIRGRGGRTYYADSVKGRFTISRDNAKNTVYLQMNSLKPEDTAVYYCNADGYAYYRATTRFDYWGQGTQVTVSS	high polyreactivity
QVQLVESGGGLVQAGGSLRLSCAASGSTIYVKAMGWYRQAPGKEREFVAAITWNSGSTYYADSVKGRFTISRDNAKKTVYLQINSLKPEDTAVYYCAAVLSVLVYGYVYWGQGTQVTVSS	low polyreactivity
QVQLVESGGGLVQAGGSLRLSCAASGSTIYVYAMGWYRHPPGKERELVAAISTAGGRTSYADSVKGRFTISRDNAQNTVYLQMNSLKPEDTAVYYCAARSTLYRSIRYDYWGQGTQVTVSS	high polyreactivity
QVQLVESGGGLVQAGGSLRLSCAASGSTLAGYAMGWYRQAPGKERELVATISWSDGSTSYADSVKGRFTFSRDNAKNTVYLQLNSLKPEDTAVSYCAADAITNYDGRKSRRSYSAYDYWGQGTQVTVSS	low polyreactivity
QVQLVESGGGLVQAGGSLRLSCAASGSTLAQYAMGWYRQAPGKERELVAAISRRGASTYYADSVKGRFTISRDNAKNTGYLQMNSLKPEDTAVYYCNAVRGEKMGYWGQGTQVTVSS	high polyreactivity
QVQLVESGGGLVQAGGSLRLSCAASGSTLASYAMGWYKQAPGKERELVAAISRGGGSTFYADSVKGRFTISRDNAKNTVYLQMNSLKPEDTAVYYCAAFGRYYYIYDYWGQGTQVTVSS	high polyreactivity
QVQLVESGGGLVQAGGSLRLSCAASGSTLAYNAMGWYRQAPGKERELVAAISSNGDSTYYADSVKGRFTISRDNAKNTVYLQMNSLKPEDTAVYYCAAGYYSRYYEAFEYYYWGQGTQVTVSS	high polyreactivity
QVQLVESGGGLVQAGGSLRLSCAASGSTLDGNAMGWYRQAPGKERELVAAISVSGGSTYYADSVKGRFTISRDNAKNTVYLQMNSLKPEDPAVYYCSTEWRPRYYGTEPFDSWGQGTQVTVSS	high polyreactivity
QVQLVESGGGLVQAGGSLRLSCAASGSTLESYAMGWYRQAPGKERELVAAISKSGGRTYYADSVKGRFTISRDNAKNTLYLQMNSLKPEDTAVYYCAADSGTHLTYYWGQGTQVTVSS	high polyreactivity
QVQLVESGGGLVQAGGSLRLSCAASGSTLFWNAIGWYRQAPGKERELVAVISFSGVSTYYADSVKGRFTISRDNAKNTVYLQMNSLKPEDTAVYYCAAEVPHWPYYGRLHDRDYWGQGTQVTVSS	low polyreactivity
QVQLVESGGGLVQAGGSLRLSCAASGSTLGAYAMGWSRQAPGKERELVAAISRSGGNTYYADSVKGRFTISRDNAKNTVYLQMNSLKPDDTAVYYCAAVRLYRYDYWGQGTQVTVSS	low polyreactivity
QVQLVESGGGLVQAGGSLRLSCAASGSTLGVYAMGWYRQAPGKERELVAAISSGGSTTYADSVKGRFTISRDNAKNTDYLQMNSLKPEDTAVYYCAATNVRGVYYWGQGTQVTVSS	high polyreactivity
QVQLVESGGGLVQAGGSLRLSCAASGSTLGYYVMGWYRQAPGKERELVAAITGGGSTDYADSVKGRFTISRDNAKNTVYLQMNSLIPEDTAVYYCAAERTRTGQLFWWGPIYDYWGQGTQVTVSS	low polyreactivity
QVQLVESGGGLVQAGGSLRLSCAASGSTLHLYAMGWYRQAPGKERELVADITSGGDTYYADSVKGRFTISRDNAKNTVYLQMNSLKPEDTAVYYCNAVYEGRYEYAYYYRYDYWGQGTQVTLSS	high polyreactivity
QVQLVESGGGLVQAGGSLRLSCAASGSTLLANAMGWYRQAPGKERELVAASTYYADSVKGRFTISRDNAKNTVYLQMNSLKPEDTAVYYCAADTVRGGPDGIEYNYWGQGTQVTVSS	low polyreactivity
QVQLVESGGGLVQAGGSLRLSCAASGSTLLYYAKGWYRQAPGKERELVAAISWRGGSTYYADSVKGRFTISRDNAKYTVYLQMNSLKPEDTAVYYCAARSLRLVGPYYYWGQGTQVTVSS	high polyreactivity
QVQLVESGGGLVQAGGSLRLSCAASGSTLNRNAMGWYRQAPGKERDLVAAIRVSGGSTYYADSVKGRFTISRDNAKNTVYLQMNSLKPEDTAVYYCATRYVRARWYGYWGQGTQVTVSS	high polyreactivity

Source: the nanobody polyreactivity screen of Harvey et al. (2022)
